# Assay results taken from the nanobody polyreactivity screen of Harvey et al. (2022).
# Test: yeast display, Sf9 membrane polyspecificity reagent, FACS + sequencing; frameworks hold sequencing errors
# Outline: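 Polyreactivity labels are assigned by the sorting gate from which each nanobody was recovered. The gates were low and high (top ~1%), set on anti-HA fluorescence for expression and streptavidin fluorescence for reagent binding. Before sorting, galactose-induced (36–48 hours) yeast display cells were stained for 1 hour at 4 °C with 10% biotinylated, detergent-solubilized Sf9 membrane reagent.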
row,Sequence,polyreactivity (PSR sort gate)
1,QVQLVESGGGLVQAGGSLRLSCAATGRTFVSNAMGWYRQAPGKERELVAAISSSTGSTYYADSVKGRFTISRDNAKNTVYLQMNSLKPEDTAVYYCAAYLLGRSPYDYWGQGTQVTVSS,low polyreactivity
2,QVQLVESGGGLVQAGGSLRLSSAASGSTFGKYARGWYRQAPGKERELVAAITVNAGRTYYADSVKGRFTISRDNAKNTVYLQLNSLKPEDTAVYYCAGVPRRYYARYYYWGQGTQVTVSS,high polyreactivity
3,QVQLVESGGGLVQAGGSLRLSCAASGRIFFRYAMGWYIQAPGKEREFVAAISGSAGSTYYADSVKGRFKISRDNAKNTVYLQMNSLKPEDTAVYYCAARKAKVSNGLKYDYWGQGTQVTVSS,low polyreactivity
4,QVQLVESGGGLVQAGASLRLSCAASGRIFWHNAMGWYRQAPGKERELVAAMTRGGSTYYADSVKGRFTISRDNAKNTVYLQMNSLKPEDTAVYYCATLGSLRYYWPGYDYWGQGTQVTVSS,low polyreactivity
5,QVQLVESGGGLVQAGGSLRLSCAASGSTLVDNGMGWYRHAPGKERELVASISSDGSTNYADSVKGRFTISRDNAKYTVYLQMNSLKTEDPAVYYCAADEGTGQASLSSNLSDYWGQGTQVTVSS,low polyreactivity
6,QVQLVQSGGGLVQAGGSLRLSCSASGRIFSAYAMGWYRPAPGKERELVAAITWSGANTDYADSVKGRFTMSRDNAKYTVYLQMNSLKPEDTAVYYCNASVGRDSAYDYWGQGTQVTVSS,low polyreactivity
7,QVQLVESGGGLVQAGGSLRLTCAASGFTFHSYAMGWYRQSPGTERELVAAISARGGSTYYADSVKGRLTISRDNAKNTVYLQMNSLKPEDTAFYYCAAYSYQVRFYYWGQGTQVTVSS,high polyreactivity
8,QVQLVESGGGLVQAGGSLRLSCAASALTLRHYAMGWYRQAPGKERELVARIRISGRTYYADSVKGRFTISRDNAKNTVYLQMNSLKPEDTAVYYCAKVQFATSPPGLTLSYYYWGQGTQVTVSS,high polyreactivity
9,QVQLVESGGGLVQAGGSLRLSCAPSGRTFLAYAMGWYRQAPGKEREVVAAISSSGSTTYYADSVKGRFTISRDNAKNTVYLQMNSLKPEDTAVYYCAASNGYRSSYYRYDYWGQGTQVTVSS,low polyreactivity
10,QVQLVESAGGLVQAGGSLRLSCAASGFIFVRNAMGWYRPAPGKVRELVAAISRSGGRTYNADSVKGRFTISRDNAKNTVYLQMNSLKPEDTAVYYCAARSGYFRSRFDYWGQGTQVTVSS,high polyreactivity
11,QVQLVESGGGLVQAGGSLRLSCAASVFILRYYAMGWYRQAPGKERELVAAISYTAGSTYYADSVKGRFTISRDNAKNTVYLQMNSLKPKDTAVYYCAASYTPWRYVPRDYWGQGTQVTVSS,high polyreactivity
12,QVQLVESGGGLVQAGGSLRLSCAASGIIFLEYAMGWYRQAPGKERELVAAISSDDGSSTYYADSVKGRFTISRDNAKNTVYLKMNSLKPEDTAVYYCAAYGGGGYYYDYEYWGQGTQVTVSS,high polyreactivity
13,QDQLVESGGGLVEAGGSLRLSCAASGITFSWYAMVWKRQAPGKEREFVAAISPGGTSTYYADSVKGRFTISRDNAKKTVYLQMNSLKPEDTAFYYCAVQWLYPYDYWGHGTQVTVSS,high polyreactivity
14,QVQLVESGGGLVQAGGSLRLSCAASGGTFPAYTMGWYRQAPGKERELVAAITWSGGNTYYADSVKGRFTISRDNAKNTVYLQMNSLKPQDTAVYYCAAEYWQYQWSVRIDYEYWGQGTQVTVSS,high polyreactivity
15,QVQLVESGGGLVQAGGSLRLSCAASGFILYGNAMGLYRQAPGKERELVAAISRRGGSTYYADSVKGRFTISRDNAKNTVYLQMNSLKPEDTAVYYCAKDGPGGGTRIYEYWGQGTLVTVSS,high polyreactivity
16,QVQLVESGGGLVQAGGSLRLSCAASGRIFSDYAMGWYRQAPGKERELVAAISWGGGRTYYADSVKGRFTISRDNAKNTVYLQMNSLKPEDTAVYYCNRGTVNSWARGYWGQGTQVTVSS,high polyreactivity
17,QVQLVESGGGLVQAGGSLRLSCAASGSIFRRNAMGWYRQAPGKERELVAAINSGGTTYYADSVKGRFTNSRDNAKNTVYLQMNSLKPEVTAVYYCATVYRGWYYYWGQGTQVTVSS,high polyreactivity
18,QVQLVESGGGLVQAGGSLRLSCAASGFTFQFYAMGWYRQAPGKERELVARISESGSRTYYADSVKGRFTISRDNAKNTVYLQMNSLKPEDTAVYYCAADNPYLGRKFDYWGQGTQVTVSS,high polyreactivity
19,QVQLVESGGGLVQAGGSLRLSCAASGYTFTVYAMGWYRQAPGKERELVAAITWNGASTYYADSVKARFTISRDNAKKTVYLQMNSLKPEDTAVYNCADPNYFYRDRSRLDYWGQGTQVTVSS,low polyreactivity
20,QVQLVESGGGLVQAGGSLGLSCAASGFIFSSNAMGWYRQARGKERELVAAITSGGGRTYSADSVKRRFTISRDNAKNTVYLQKNSLKPEDTAVYYCNAEQWQSSEYGEWSKRDYWGQGTQVTVSS,low polyreactivity

row,Sequence,polyreactivity (PSR sort gate)
1,QVQLVESGGGLVQAGGSLRLSCAASGSIFTRNTMGWSRQAPGKERELVAAISQRGGSTYSADSVKGRFTISRDNAKNTVYLQMNSLKPEDTAVYYCAADFSFGYYWDGFWGQGTQVTVSS,high polyreactivity
2,QDQLVESGGGLVQAGGSLRLSCAASGSIFKHNDMGWYRQAPGKERELVAAISRSGGSTYYAHSVKGRFTISRDNAKNTVYLLMNSLKPEDTAVYYCNAGRRTARYGYWGQGTQVTVSS,high polyreactivity
3,QVQLVESGGGLVQAGGSLRLSCAASGSIFGAYAMGWYRQAPGKERELVAAINYGGATTYYADSVKGRFTISRDNAKNTVYLQMNSLKPEDTAVYYCAADYLYAYGDVAVVYGWYAYYYWGQGTQVTVSS,low polyreactivity
4,QVQLVESGGGLVQAGGSLRLSCAASGRTFSSYAMGWYRQAPGKERELVASISKSGGSTSYADSVKGRFTISRDNAKNTVYLQMNSLKPEDTAVYYCNARLDYSTYESSPVTRKRYYWGQGTQVTVSS,low polyreactivity
5,QVQLVESGGGLVQAGGSLRLSCAASGSTFGLNALGWYRQAPGKERELVAAISTSGGSTYYADSVKGRFTISRDNAKNTVFLQMNSLNPEDTAVYYCAADVVAGYDYSQYYYWGQGTQVTVSS,low polyreactivity
6,QVQLVESGGGLVQAGGSLRLSCAASGFIFKHYAMGWYRQAPGKERELVAAITSSGGNTYYADSVKGRFTISRDNAKNTVYLQMNSLKPEDTAVYYCNARFRTLYWGQGTQVTVSS,high polyreactivity
7,QVQLVESGGGLVQAGGSLRLSCAASGSTLYTYAMGWYRQAPGKERELVATISWSGSSTYYADSVKGRFTISRDNAKNTVYLQMNSLKPEDTAVYYCNKVPGKSGVPPDYDYWGQGTQVTVSS,high polyreactivity
8,QVQLVESGGGLVQAGGSLRLSCAASGLIFRYYAMGVYRQAPGHERELVAALTSTGRTYYADSVKGRFTISRDNAKNTVYVQMNSLKPEDTAVYYCNTDQFADYHTDFWSDYEYWGQGTQVTVSS,low polyreactivity
9,QDQLVESGGGLVQAGGSLRLICAASASTFTRYAMGWYRQAPGKERELVACITGRGGSTYYADSVKGRFPISRDYAKNTVYLQMNCLKPEDTAVYYCARAEGKCPYSRYWPYRGGYDYWGQGTQVTRSS,high polyreactivity
10,QVQLVESGGGLVQAGGSLRLSCAASGSTFRYYAMGWYRQAPGKERELVASISTGGRTYYADSVKGRFTISRDNAKNTVYLQMNSLKPEDTAVYYCAAQGYWIYNTAYGYWGQGTQVTVSS,high polyreactivity
11,QVQLVESGGCLVQAGGSLRLSCAASGSTFYVYTMGWYTQAPGKESELVAAISWTDGDTYYADSVKGRFTISRDTAKKTVYLEMNSLKPEDTAVYYCAADIAWLWWYGPGYDYWGQGTQVTVSS,low polyreactivity
12,QVQLVESGGGLVQAGGRLRLSCAASGFTFDYNAMGWYIQAPGKEREFVASISVSGGSTYYADSVKGRFTISRDNAKNTVYLQMNSLKPEDTAVYYCAAELTGDGTLGYDFWGQGTQVTVSS,low polyreactivity
13,QVHLVESGGGLVQAGGSLRLSSAASGFICYQYAMGWYRQAPGKERELVAAISRRGGGTYYADSVKGRFTISRDNAKNTVYLEMNRLKPEDTAVYYCNTDRLGRITFGGYDYWGQGTQVTVSS,high polyreactivity
14,QVQLVESGGGLVQAGGSLRLSCAASGITFQWYTMGWYRQAPGKERELVATISSGGSTNYADSVKGRFTISRDNAKNTVYLQMNSLKPEDTPVYYCAAYDYISSTYFLDEYWGQGTQVTVSS,low polyreactivity
15,QVQLVESGGGLVQAGGSLRLSCAASGIIFPYNTMGWYRQAPGKERELVASIDDGGSTNYADSVKGRFTISRDNAKNTVYLQMNSLKPEDTAVYYCAADPYWFFPHYDSWGQGTQVTVSS,low polyreactivity
16,QVQLVESGGGLVQAGGSLRLSCAASGSIFGEYTMGWYRPAPGKERELVAAIRSGGDTYYADSVKGRFTISRDNAKNTVYLQMNSLKPEDTAVYYCNAYWVRHYIMDYWGQGTQVTVSS,low polyreactivity
17,QVQLVESGGGLVQAGGSLRLSCAASGIIFSHNVMGWYRQAPGKERELVAAITYSGGSTYYADSVKGRFTISRDNAKNTVYLQMNSMKPEDTAVYYCNAVTYSSPYRFDYWGQGTQVTVSS,low polyreactivity
18,QVQLVESGGGLDQAGGSLRLSCAASGSTFDVYAMGRYRQAPGKVRELVAAISRSGGSTYYADSVKGRFTISRDYAKNNVYLQMYSLKPEDTAVYYCNARLARWGSYEYNYWGQGTQVTVSS,low polyreactivity
19,QVQLVESGGGLVQAGGSLRLSCAASGRIFLTYAMGWYRQAPGKERELVAAISGRGGSTYYADSVNGRFTISRDYAKNTVYLQMNSLKPEDTAVYYCAAAKWVIQTGNYYYWGQGTQVTVSS,low polyreactivity
20,QVQLVESGGGLVQAGGSLRLSCAASCVRNAMGWYRQAPGKERELVAAITSGGNTNYADSVKGRFTISRDNAKNTVYLQMNSLKPEDTAVYYCAKDLLYYTQQGTGVVDYDYWGQGTQVTVSS,low polyreactivity
